# Patent publication US20200140532A1 (Ablynx, published 2020)
# B1: C0101PMP115B08 (VHH)
# VHH: KVQLVESGGGLVQPGGSLRLSCAASGFTFSMYAMKWVRQAPGKGLEWVSGINSSGGRTNYAGSVKGRFTISRDNAKNTLYLQMNSLKPEDTAVYYCATDFLGGRNSRGQGTQVTVSS
# notes: Tested as E. coli periplasmic extract; not shown: FLAG3 and His6 tags (phagemid pAX212)
# B2: C01010113 (ALB26-606A07-606A07) (VHH, not shown: small tags and cut ends)
# VHH 1: DVQLVESGGGLVQPGGSLRLSCVASGRTFSIYGMGWFRQAPGKEREFVAAINGGSRTYYADSVKGRFTISRDNSKNTVYLQMNSLRPEDTAVYYCAADRSGYGTSLDWWYDYWGQGTLVTVSS
# VHH 2: DVQLVESGGGLVQPGGSLRLSCVASGRTFSIYGMGWFRQAPGKEREFVAAINGGSRTYYADSVKGRFTISRDNSKNTVYLQMNSLRPEDTAVYYCAADRSGYGTSLDWWYDYWGQGTLVTVSS
# notes: also called AL326-606A07-606A07
# B3: C0101PMP606A07 (VHH)
# VHH: DVQLVESGGGLVQPGGSLRLSCVASGRTFSIYGMGWFRQAPGKEREFVAAINGGSRTYYADSVKGRFTISRDNSKNTVYLQMNSLRPEDTAVYYCAADRSGYGTSLDWWYDYWGQGTLVTVSS
# notes: as for B1
# B4: C01010109 (ALB26-608A05-608A05) (VHH, not shown: small tags and cut ends)
# VHH 1: DVQLVESGGGLVQPGGSLRLSCAASGRTFSTYTMGWFRQAPGKEREFVAAISWSGGTTYYADSVKGRFTISRDNSKNTVYLQMNSLRPEDTAVYYCAARPRYYYYSLYSYDYWGQGTLVTVSS
# VHH 2: DVQLVESGGGLVQPGGSLRLSCAASGRTFSTYTMGWFRQAPGKEREFVAAISWSGGTTYYADSVKGRFTISRDNSKNTVYLQMNSLRPEDTAVYYCAARPRYYYYSLYSYDYWGQGTLVTVSS
# B5: C0101PMP608A05 (VHH)
# VHH: DVQLVESGGGLVQPGGSLRLSCAASGRTFSTYTMGWFRQAPGKEREFVAAISWSGGTTYYADSVKGRFTISRDNSKNTVYLQMNSLRPEDTAVYYCAARPRYYYYSLYSYDYWGQGTLVTVSS
# notes: as for B1
# B6: C0101PMP604G01 (VHH)
# VHH: DVQLVESGGGLVQPGGSLRLSCAASGRTFSSYTMGWFRQAPGKEREFVAAISWSGRTTYYADSVKGRFTISRDNSKNTVYLQMNSLRPEDTAVYYCAAYRRVRYTNLEVWDYWGQGTLVTVSS
# notes: as for B1
# B7: C01010106 (ALB26-604F02-604F02) (VHH, not shown: large carriers; small tags and cut ends)
# VHH 1: DVQLVESGGGLVQPGGSLRLSCAASGRTFSSYTMGWFRQAPGKEREFVAAISWSGGRTYYADSVKGRFTISRDNSKNTVYLQMNSLRPEDTAVYYCAAYRRRRASSNRGLWDYWGQGTLVTVSS
# VHH 2: DVQLVESGGGLVQPGGSLRLSCAASGRTFSSYTMGWFRQAPGKEREFVAAISWSGGRTYYADSVKGRFTISRDNSKNTVYLQMNSLRPEDTAVYYCAAYRRRRASSNRGLWDYWGQGTLVTVSS
# B8: C0101PMP604F02 (VHH)
# VHH: DVQLVESGGGLVQPGGSLRLSCAASGRTFSSYTMGWFRQAPGKEREFVAAISWSGGRTYYADSVKGRFTISRDNSKNTVYLQMNSLRPEDTAVYYCAAYRRRRASSNRGLWDYWGQGTLVTVSS
# notes: as for B1
# B9: C01010118 (ALB26-114F08-114F08) (VHH, not shown: small tags and cut ends)
# VHH 1: EVQLVESGGGLVQAGGSLRLSCAASGSTFIINVVRWYRRTPGKQRELVATISSGGNANYVDSVRGRFSISRDGAKNAVDLQMNGLKPEDTAVYYCNVPTTHYGGVYYGPYWGQGTQVTVSS
# VHH 2: EVQLVESGGGLVQAGGSLRLSCAASGSTFIINVVRWYRRTPGKQRELVATISSGGNANYVDSVRGRFSISRDGAKNAVDLQMNGLKPEDTAVYYCNVPTTHYGGVYYGPYWGQGTQVTVSS
# notes: also called C010100118
# B10: C0101PMP114F08 (VHH)
# VHH: EVQLVESGGGLVQAGGSLRLSCAASGSTFIINVVRWYRRTPGKQRELVATISSGGNANYVDSVRGRFSISRDGAKNAVDLQMNGLKPEDTAVYYCNVPTTHYGGVYYGPYWGQGTQVTVSS
# notes: as for B1
# B11: C0101PMP117D05 (VHH)
# VHH: KVQLVESGGGLVQAGGSLRLSCAASRRTFNMMGWFRQAPGKEREFVAYITWNGGDTRYAESVKGRFTVSRDDVKNTMALQMNRLDPLDTAVYYCGVRIHGSNWSTKADDYDNWGQGTQVTVSS
# notes: as for B1
# B12: C0101PMP601E08 (VHH)
# VHH: DVQLVESGGGLVQPGGSLRLSCTASGRTFSSYAVGWFRQAPGKEREFVAAISRSGRSTYYADSVKGRFTISRDNSKNTVYLQMNSLRPEDTAVYYCAAGLSYYSPHAYYDYWGQGTLVTVSS
# notes: as for B1
# B13: C0101PMP604B05 (VHH)
# VHH: DVQLVESGGGLVQPGGSLRLSCVASGRTFSIYTMAWFRQAPGKEREFVAAISWSSGRTYYADSVKGRFTISRDNSKNTVYLQMNSLRPEDTAVYYCTAYTGPRSGYDYWGQGTLVTVSS
# notes: as for B1
# B14: C0101PMP112A03 (VHH)
# VHH: EVQLVESGGGLVQPGGSLRLSCAASGSIFSNRFMYWYRQAPGKQRELVASITLSGSTNYADSVKGRFTISRDNAKNTVYLQMNSLKPEDTAVYYCNTFLQNSFYWGQGTQVTVSS
# notes: as for B1
# B15: C0101PMP601E09 (VHH)
# VHH: DVQLVESGGGLVQPGGSLRLSCAASGLTFSTYAMGWFRQAPGKEREFVAAISWSGSRTYYADSVKGRFTISRDNSKNTVYLQMNSLRPEDTAVYYCAAYRRPRYSPTGTWDYWGQGTLVTVSS
# notes: as for B1
# B16: C0101PMP112A01 (VHH)
# VHH: EVQLVESGGGLVQTGGSLRLSCVASGRAFSNYIMGWFRQAPGKERDFVAAINWNGVTTHYTDSVKGRFTISRDNAKSTSYLQMDSLKPDDTAVYFCAARGTVYSRTYGVSEEGYMYWGQGTQVTVSS
# notes: as for B1
# B17: C0101PMP601D02 (VHH)
# VHH: DVQLVESGGGLVQPGGSLRLSCAASGPTFSRYAMGWFRQAPGKEREFVAAITWSSGGRTYYADSVKGRFTISRDNSKNTVYLQMNSLRPEDTAVYYCAAARIPVRTYTSEWNYWGQGTLVTVSS
# notes: as for B1
# B18: C0101PMP117G09 (VHH)
# VHH: EVQLVESGGGSALPGGSLRLSCAASGITFSSRYMRWYRQAPGRQRELVAAISSGGRTDYVDSVRGRFTLSINNAKNTVYLQMNDLKPEDTAVYYCYRPRMYVDGTYEKELWGQGTLVTVSS
# notes: as for B1
# B19: C0101PMP604G09 (VHH)
# VHH: DVQLVESGGGLVQPGGSLRLSCVASGRTFSSYAMGWFRQAPGKEREFVAAITWSSATTYYADSVKGRFTISRDNSKNTVYLQMNSLRPEDTAVYYCAAARIPVGRRSENWDYWGQGTLVTVSS
# notes: as for B1
# B20: C0101PMP113A01 (VHH)
# VHH: EVQLVESGGGLVQPGGSLRLSCSASGFTFSGSWMFWVRQAPGKDYEWVASINSSGGRTYYDDSVKGRFTISRDSAKNTLYLEMNNLKPEDTALYFCARSPRVGSWGQGTQVTVSS
# notes: as for B1
# B21: C0101PMP609C09 (VHH)
# VHH: DVQLVESGGGLVQPGGSLRLSCAASGTIFSINVMGWYRQAPGKEREFVAAITTGGRTNYADSVKGRFTISRDNSKNTVYLQMNSLRPEDTAVYYCNAEVTTGWVGYSWYDYWGQGTMVTVSS
# notes: as for B1
# Assays:
# [1] = biological target: T1, recombinant human Aggrecan G1-IGD-G2 (human, UniProt P16112 20-676); assay: periplasmic extract ELISA
# T1 construct: Only the G1-IGD-G2 region was used (R&D Systems 1220-PG is named for the immunogen); also called Hu G1-IGD-G2
# [2] = biological target: T2, recombinant bovine Aggrecan G1-IGD-G2 (bovine, UniProt P13608 20-684, limits assumed); assay: periplasmic extract ELISA
# T2 construct: also called Bov G1-IGD-G2; Boy G1-IGD-G2
# [3] = biological target: T3, recombinant rat Aggrecan G1-IGD-G2 (rat, UniProt P07897 20-684, limits assumed); assay: periplasmic extract ELISA
# T3 construct: also called Rat G1-IGD-G2
# [4] = biological target: T4, recombinant dog Aggrecan G1-IGD-G2 (dog, UniProt Q28343 20-693, limits assumed); assay: periplasmic extract ELISA
# T4 construct: also called Dog G1-IGD-G2
# [5] = biological target: recombinant human Neurocan (human, UniProt O14594 23-1321, limits assumed); assay: ELISA on recombinant human Neurocan
# [6] = biological target: T1, recombinant human Aggrecan G1-IGD-G2; assay: ELISA on recombinant G1-IGD-G2
# [7] = biological target: T3, recombinant rat Aggrecan G1-IGD-G2; assay: ELISA on recombinant G1-IGD-G2
# [8] = biological target: T4, recombinant dog Aggrecan G1-IGD-G2; assay: ELISA on recombinant G1-IGD-G2
# [9] = biological target: T2, recombinant bovine Aggrecan G1-IGD-G2; assay: ELISA on recombinant G1-IGD-G2
binder,measurement,setting,value
B1,OD 450 nm,[1],1.65 OD 450 nm
same,OD 450 nm,[2],0.84 OD 450 nm
same,OD 450 nm,[3],1.85 OD 450 nm
same,OD 450 nm,[4],1.8 OD 450 nm
B2,EC50,[5],0.87 nM
same,EC50,[6],0.67 nM
same,EC50,[7],0.12 nM
same,EC50,[8],3 nM
B3,OD 450 nm,[1],0.71 OD 450 nm
same,OD 450 nm,[3],2.31 OD 450 nm
same,OD 450 nm,[4],1.47 OD 450 nm
B4,EC50,[6],0.1 nM
same,EC50,[9],0.077 nM
same,EC50,[7],0.095 nM
same,EC50,[8],0.33 nM
B5,OD 450 nm,[1],2.33 OD 450 nm
same,OD 450 nm,[2],2.27 OD 450 nm
same,OD 450 nm,[3],2.39 OD 450 nm
same,OD 450 nm,[4],0.86 OD 450 nm
B6,OD 450 nm,[1],2.27 OD 450 nm
same,OD 450 nm,[2],0.68 OD 450 nm
same,OD 450 nm,[3],0.6 OD 450 nm
same,OD 450 nm,[4],1.55 OD 450 nm
B7,EC50,[6],0.066 nM
same,EC50,[7],0.1 nM
same,EC50,[8],0.097 nM
B8,OD 450 nm,[1],2.41 OD 450 nm
same,OD 450 nm,[2],0.82 OD 450 nm
same,OD 450 nm,[3],0.78 OD 450 nm
same,OD 450 nm,[4],1.04 OD 450 nm
B9,EC50,[6],0.11 nM
same,EC50,[9],0.37 nM
same,EC50,[7],0.19 nM
same,EC50,[8],0.24 nM
B10,OD 450 nm,[1],2.38 OD 450 nm
same,OD 450 nm,[2],1.18 OD 450 nm
same,OD 450 nm,[3],2.05 OD 450 nm
same,OD 450 nm,[4],1.9 OD 450 nm
B11,OD 450 nm,[1],2.25 OD 450 nm
same,OD 450 nm,[2],1.92 OD 450 nm
same,OD 450 nm,[3],2.35 OD 450 nm
same,OD 450 nm,[4],1.53 OD 450 nm
B12,OD 450 nm,[1],2.28 OD 450 nm
same,OD 450 nm,[2],1.68 OD 450 nm
same,OD 450 nm,[3],2.49 OD 450 nm
same,OD 450 nm,[4],0.57 OD 450 nm
B13,OD 450 nm,[1],2.48 OD 450 nm
same,OD 450 nm,[2],1.63 OD 450 nm
same,OD 450 nm,[3],1.98 OD 450 nm
same,OD 450 nm,[4],1.27 OD 450 nm
B14,OD 450 nm,[1],2.51 OD 450 nm
same,OD 450 nm,[2],0.73 OD 450 nm
same,OD 450 nm,[3],1.69 OD 450 nm
same,OD 450 nm,[4],1.47 OD 450 nm
B15,OD 450 nm,[3],2.61 OD 450 nm
same,OD 450 nm,[4],2.57 OD 450 nm
B16,OD 450 nm,[1],2.5 OD 450 nm
same,OD 450 nm,[2],2.41 OD 450 nm
same,OD 450 nm,[3],2.03 OD 450 nm
same,OD 450 nm,[4],1.57 OD 450 nm
B17,OD 450 nm,[1],2.58 OD 450 nm
same,OD 450 nm,[3],2.59 OD 450 nm
same,OD 450 nm,[4],2.58 OD 450 nm
B18,OD 450 nm,[1],2.21 OD 450 nm
same,OD 450 nm,[2],0.76 OD 450 nm
same,OD 450 nm,[3],2.29 OD 450 nm
same,OD 450 nm,[4],1.68 OD 450 nm
B19,OD 450 nm,[1],2.41 OD 450 nm
same,OD 450 nm,[2],1.21 OD 450 nm
same,OD 450 nm,[3],1.4 OD 450 nm
same,OD 450 nm,[4],1.16 OD 450 nm
B20,OD 450 nm,[1],2.56 OD 450 nm
same,OD 450 nm,[2],2.54 OD 450 nm
same,OD 450 nm,[3],2.53 OD 450 nm
same,OD 450 nm,[4],2.51 OD 450 nm
B21,OD 450 nm,[1],2.1 OD 450 nm
same,OD 450 nm,[2],1.08 OD 450 nm
same,OD 450 nm,[3],0.97 OD 450 nm
same,OD 450 nm,[4],1.52 OD 450 nm
